# Patent US20110086797
# B1: PrkC Ser/Thr kinase of B. subtilis (protein)
# chain: MLIGKRISGRYQILRVIGGGGMANVYLAEDIILDREVAIKILRFDYANDNEFIRRFRREAQSASSLDHPNIVSIYDLGEEDDIYYIVMEYVEGMTLKEYITANGPLHPKEALNIMEQIVSAIAHAHQNQIVHRDIKPHNILIDHMGNIKVTDFGIATALSSTTITHTNSVLGSVHYLSPEQARGGLATKKSDIYALGIVLFELLTGRIPFDGESAVSIALKHLQAETPSAKRWNPSVPQSVENIILKATAKDPFHRYETAEDMEADIKTAFDADRLNEKRFTIQEDEEMTKAIPIIKDEELAKAAGEKEAEVTTAQENKTKKNGKRKKWPWVLLTICLVFITAGILAVTVFPSLFMPKDVKIPDVSGMEYEKAAGLLEKEGLQVDSEVLEISDEKIEEGLMVKTDPKADTTVKEGATVTLYKSTGKAKTEIGDVTGQTVDQAKKALKDQGFNHVTVNEVNDEKNAGTVIDQNPSAGTELVPSEDQVKLTVSIGPEDITLRDLKTYSKEAASGYLEDNGLKLVEKEAYSDDVPEGQVVKQKPAAGTAVKPGNEVEVTFSLGPEKKPAKTVKEKVKIPYEPENEGDELQVQIAVDDADHSISDTYEEFKIKEPTERTIELKIEPGQKGYYQVMVNNKVVSYKTIEYPKDE
# Molecular target: elongation factor G (EF-G) of B. subtilis, P80868
# Sequence (P80868 2-692): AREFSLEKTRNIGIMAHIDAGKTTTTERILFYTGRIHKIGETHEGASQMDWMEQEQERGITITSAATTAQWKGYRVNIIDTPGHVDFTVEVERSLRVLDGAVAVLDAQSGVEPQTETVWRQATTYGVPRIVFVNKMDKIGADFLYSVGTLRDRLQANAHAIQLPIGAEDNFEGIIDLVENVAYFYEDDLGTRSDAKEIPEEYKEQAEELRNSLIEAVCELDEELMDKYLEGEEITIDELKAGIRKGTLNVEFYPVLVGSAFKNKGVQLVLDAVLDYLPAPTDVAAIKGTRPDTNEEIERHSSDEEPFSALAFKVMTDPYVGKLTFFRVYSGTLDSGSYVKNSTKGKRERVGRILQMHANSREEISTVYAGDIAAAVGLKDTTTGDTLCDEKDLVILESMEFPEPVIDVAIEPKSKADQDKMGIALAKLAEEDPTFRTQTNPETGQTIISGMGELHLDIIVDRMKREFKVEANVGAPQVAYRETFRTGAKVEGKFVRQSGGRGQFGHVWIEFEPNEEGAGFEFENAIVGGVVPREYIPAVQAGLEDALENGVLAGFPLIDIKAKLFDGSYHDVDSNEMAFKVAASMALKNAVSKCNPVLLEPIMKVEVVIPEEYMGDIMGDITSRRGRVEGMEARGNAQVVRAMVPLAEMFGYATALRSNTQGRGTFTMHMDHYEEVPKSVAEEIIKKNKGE
protein,measurement,value
B1,"EF-G phosphorylation (immunoprecipitation with anti-EF-G, western blot with anti-phosphothreonine antibody)","EF-G (as identified by probing the same fractions with the α-EF-G) phosphorylation increased following exposure to cell free supernatant (FIG. 24D). In contrast, no change in phosphorylation was observed in spores lacking PrkC."
